Measurements reported in US20240239863A1, “GIP RECEPTOR AGONIST AND USE THEREOF” (HANGZHOU ZHONGMEIHUADONG PHARMACEUTICAL CO., LTD., priority 2022, published 2024).
Where two headings read alike, the source gives them in different places. Non-standard residues stand in square brackets, D forms with d. Residues, ends and D or L forms follow the SMILES beside them. No end group written: not given here. Aib = CC(C)(N)C(=O)O

What was measured:
hGLP-1R = hGLP-1R (Homo sapiens, UniProt P43220); assay: Cell agonistic activity at GLP-1 receptor (Example 7); type: cell-based
human GLP-1 receptor [1] = target: T1, human GLP-1 receptor (human, UniProt P43220 24-463); assay: cell-based or functional assay
[2] = target: T2, human GIP receptor (glucose-dependent insulinotropic peptide receptor, GIPR) (human, UniProt P48546 22-466); assay: cell-based or functional assay
T2 sequence (looked up): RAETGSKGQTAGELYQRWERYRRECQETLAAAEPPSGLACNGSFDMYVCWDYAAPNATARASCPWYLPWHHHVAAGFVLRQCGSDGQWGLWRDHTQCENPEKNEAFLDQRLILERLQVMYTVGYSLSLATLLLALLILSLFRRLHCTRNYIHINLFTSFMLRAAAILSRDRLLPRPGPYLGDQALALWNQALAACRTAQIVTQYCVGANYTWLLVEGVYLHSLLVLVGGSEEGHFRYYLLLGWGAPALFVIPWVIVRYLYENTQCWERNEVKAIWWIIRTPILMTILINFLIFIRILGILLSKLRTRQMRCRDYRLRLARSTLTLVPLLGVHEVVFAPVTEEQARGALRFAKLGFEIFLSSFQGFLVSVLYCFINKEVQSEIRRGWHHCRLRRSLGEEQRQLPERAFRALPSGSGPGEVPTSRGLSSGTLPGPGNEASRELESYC

human GLP-1 receptor [3] = target: T1, human GLP-1 receptor; assay: cell-based or functional assay; remark: listed apart in the source
[4] = target: T2, human GIP receptor (glucose-dependent …); assay: cell-based or functional assay; remark: listed apart in the source

Chain of hGLP-1R (P43220 24-463): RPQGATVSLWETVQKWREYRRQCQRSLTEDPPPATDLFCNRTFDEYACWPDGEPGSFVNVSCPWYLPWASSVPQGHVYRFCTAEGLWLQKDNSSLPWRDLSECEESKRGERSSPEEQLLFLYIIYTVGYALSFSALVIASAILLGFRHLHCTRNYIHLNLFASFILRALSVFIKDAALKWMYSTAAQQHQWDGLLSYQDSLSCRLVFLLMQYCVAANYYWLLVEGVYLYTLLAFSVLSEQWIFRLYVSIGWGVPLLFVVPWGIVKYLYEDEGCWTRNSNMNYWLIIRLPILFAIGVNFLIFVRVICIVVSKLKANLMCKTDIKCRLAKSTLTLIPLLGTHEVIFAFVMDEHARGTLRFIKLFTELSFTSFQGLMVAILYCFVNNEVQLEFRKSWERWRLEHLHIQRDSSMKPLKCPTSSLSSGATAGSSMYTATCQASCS

Molecule	EC50 (hGLP-1R) [nM]	EC50(pM), cell agonistic activity (human GLP-1 receptor [1]) [pM]	EC50(pM), cell agonistic activity (cAMP, HTRF) [2] [pM]	EC50(pM), cell agonistic activity (human GLP-1 receptor [3]) [pM]	EC50(pM), cell agonistic activity (cAMP, HTRF) [4] [pM]
CC[C@H](C)[C@H](NC(=O)[C@H](CO)NC(=O)[C@H](Cc1ccc(O)cc1)NC(=O)[C@H](CC(=O)O)NC(=O)[C@H](CO)NC(=O)[C@@H](NC(=O)[C@H](Cc1ccccc1)NC(=O)[C@@H](NC(=O)CNC(=O)[C@H](CCC(=O)O)NC(=O)C(C)(C)NC(=O)[C@@H](N)Cc1ccc(O)cc1)[C@@H](C)O)[C@@H](C)CC)C(=O)N[C@@H](C)C(=O)N[C@@H](CC(C)C)C(=O)N[C@@H](CC(=O)O)C(=O)N[C@@H](CCCCN)C(=O)N[C@H](C(=O)N[C@@H](Cc1c[nH]cn1)C(=O)N[C@@H](CCC(N)=O)C(=O)N[C@@H](CCC(=O)O)C(=O)N[C@@H](CC(=O)O)C(=O)N[C@@H](Cc1ccccc1)C(=O)N[C@H](C(=O)N[C@@H](CCCCN)C(=O)N[C@@H](Cc1c[nH]c2ccccc12)C(=O)N[C@@H](CC(C)C)C(=O)N[C@@H](CC(C)C)C(=O)N[C@@H](C)C(=O)N[C@@H](CCC(N)=O)C(=O)N[C@@H](CCCCN)C(=O)NCC(=O)O)C(C)C)[C@@H](C)CC [Sequence 3] (H-Y[Aib]EGTFISDYSIALDKIHQEDFVKWLLAQKG-OH; N-terminus and C-terminus assumed)	> 0.1				
CC[C@H](C)[C@H](NC(=O)[C@H](CO)NC(=O)[C@H](Cc1ccc(O)cc1)NC(=O)[C@H](CC(=O)O)NC(=O)[C@H](CO)NC(=O)[C@@H](NC(=O)[C@H](Cc1ccccc1)NC(=O)[C@@H](NC(=O)CNC(=O)[C@H](CCC(=O)O)NC(=O)C(C)(C)NC(=O)[C@@H](N)Cc1ccc(O)cc1)[C@@H](C)O)[C@@H](C)CC)C(=O)N[C@@H](C)C(=O)N[C@@H](CC(C)C)C(=O)N[C@@H](CC(=O)O)C(=O)N[C@@H](CCCNC(=N)N)C(=O)N[C@H](C(=O)N[C@@H](Cc1c[nH]cn1)C(=O)N[C@@H](CCC(N)=O)C(=O)N[C@@H](CCC(=O)O)C(=O)N[C@@H](CC(=O)O)C(=O)N[C@@H](Cc1ccccc1)C(=O)N[C@H](C(=O)N[C@@H](CC(N)=O)C(=O)N[C@@H](Cc1c[nH]c2ccccc12)C(=O)N[C@@H](CC(C)C)C(=O)N[C@@H](CC(C)C)C(=O)N[C@@H](C)C(=O)N[C@@H](CCC(N)=O)C(=O)N[C@@H](CCCCN)C(=O)NCC(=O)O)C(C)C)[C@@H](C)CC [Sequence 12] (H-Y[Aib]EGTFISDYSIALDRIHQEDFVNWLLAQKG-OH; N-terminus and C-terminus assumed)	> 0.1				
CC[C@H](C)[C@H](NC(=O)[C@H](CO)NC(=O)[C@H](Cc1ccc(O)cc1)NC(=O)[C@H](CC(=O)O)NC(=O)[C@H](CO)NC(=O)[C@@H](NC(=O)[C@H](Cc1ccccc1)NC(=O)[C@@H](NC(=O)CNC(=O)[C@H](CCC(=O)O)NC(=O)C(C)(C)NC(=O)[C@@H](N)Cc1ccc(O)cc1)[C@@H](C)O)[C@@H](C)CC)C(=O)N[C@@H](C)C(=O)N[C@@H](CC(C)C)C(=O)N[C@@H](CC(=O)O)C(=O)N[C@@H](CCCCN)C(=O)N[C@@H](CC(C)C)C(=O)N[C@@H](Cc1c[nH]cn1)C(=O)N[C@@H](CCC(N)=O)C(=O)N[C@@H](CCC(N)=O)C(=O)N[C@@H](CC(=O)O)C(=O)N[C@@H](Cc1ccccc1)C(=O)N[C@H](C(=O)N[C@@H](CC(N)=O)C(=O)N[C@@H](Cc1c[nH]c2ccccc12)C(=O)N[C@@H](CC(C)C)C(=O)N[C@@H](CC(C)C)C(=O)N[C@@H](C)C(=O)N[C@@H](CCC(N)=O)C(=O)N[C@@H](CCCNC(=N)N)C(=O)NCC(=O)O)C(C)C [Sequence 8] (H-Y[Aib]EGTFISDYSIALDKLHQQDFVNWLLAQRG-OH; N-terminus and C-terminus assumed)	> 0.1				
CC[C@H](C)[C@H](NC(=O)[C@H](CO)NC(=O)[C@H](Cc1ccc(O)cc1)NC(=O)[C@H](CC(=O)O)NC(=O)[C@H](CO)NC(=O)[C@@H](NC(=O)[C@H](Cc1ccccc1)NC(=O)[C@@H](NC(=O)CNC(=O)[C@H](CCC(=O)O)NC(=O)C(C)(C)NC(=O)[C@@H](N)Cc1ccc(O)cc1)[C@@H](C)O)[C@@H](C)CC)C(=O)N[C@@H](C)C(=O)N[C@@H](CC(C)C)C(=O)N[C@@H](CC(=O)O)C(=O)N[C@@H](CCCCN)C(=O)N[C@H](C(=O)N[C@@H](Cc1c[nH]cn1)C(=O)N[C@@H](CCC(N)=O)C(=O)N[C@@H](CCC(=O)O)C(=O)N[C@@H](CC(=O)O)C(=O)N[C@@H](Cc1ccccc1)C(=O)N[C@H](C(=O)N[C@@H](CC(N)=O)C(=O)N[C@@H](Cc1c[nH]c2ccccc12)C(=O)N[C@@H](CC(C)C)C(=O)N[C@@H](CC(C)C)C(=O)N[C@@H](C)C(=O)N[C@@H](CCC(N)=O)C(=O)N[C@@H](CCCNC(=N)N)C(=O)NCC(=O)O)C(C)C)[C@@H](C)CC [Sequence 9] (H-Y[Aib]EGTFISDYSIALDKIHQEDFVNWLLAQRG-OH; N-terminus and C-terminus assumed)	> 0.1				
Y[Aib]EGTFISDYSIALDRIHQEDFVNWLLAQKG [Sequence 12 (Seq ID. 12)]		> 100	0.81		
Y[Aib]EGTFISDYSIALDRIHQQDFVKWLLAQRG [Sequence 13 (Seq ID. 13)]		> 100	36.2		
Y[Aib]EGTFISDYSIALDKIHQQDFVNWLLAQRG [Sequence 7 (Seq ID. 7)]		> 100	6.04		
Y[Aib]EGTFISDYSIALDRIHQQDFVNWLLAQKG [Sequence 14 (Seq ID. 14)]		> 100	18.4		
Y[Aib]EGTFISDYSIALDELHQKDFVNWLLAQRG (also: long-acting conjugating component, site and structure not given here) [Peptide 6 (long-acting conjugate of GIP analog, Seq ID. 6)]				> 100	32.2
Y[Aib]EGTFISDYSIALDELHQKDFVNWLLAQRG [Sequence 6 (Seq ID. 6)]		> 100	7.93		
Y[Aib]EGTFISDYSIALDEIHQKDFVNWLLAQRG [Sequence 5 (Seq ID. 5)]		> 100	6.12		
Y[Aib]EGTFISDYSIALDRIHQEDFVKWLLAQRG [Sequence 11 (Seq ID. 11)]		> 100	3.44		
Y[Aib]EGTFISDYSIALDRLHQQDFVNWLLAQKG [Sequence 18 (Seq ID. 18)]		> 100	16.9		
Y[Aib]EGTFISDYSI[Aib]LDEIHQKDFVKWLLAQKG [Sequence 2 (Seq ID. 2)]		> 100	10.7		
Y[Aib]EGTFISDYSIALDKIHQEDFVKWLLAQKG [Sequence 3 (Seq ID. 3)]		> 100	3.41		
Y[Aib]EGTFISDYSIALDRLHQEDFVNWLLAQKG [Sequence 16 (Seq ID. 16)]		> 100	25.5		
Y[Aib]EGTFISDYSIALDRLHQQDFVKWLLAQRG [Sequence 17 (Seq ID. 17)]		> 100	58.2		
Y[Aib]EGTFISDYSIALDRLHQEDFVKWLLAQRG [Sequence 15 (Seq ID. 15)]		> 100	27.2		
Y[Aib]EGTFISDYSIALDEIHQKDFVNWLLAQRG (also: long-acting conjugating component, site and structure not given here) [Peptide 5 (long-acting conjugate of GIP analog, Seq ID. 5)]				> 100	27
Y[Aib]EGTFISDYSI[Aib]LDKIHQEDFVKWLLAQKG [Sequence 1 (Seq ID. 1)]		> 100	2.38		
Y[Aib]EGTFISDYSIALDKLHQQDFVNWLLAQRG [Sequence 8 (Seq ID. 8)]		> 100	11.7		
Y[Aib]EGTFISDYSIALDKLHQEDFVNWLLAQRG [Sequence 10 (Seq ID. 10)]		> 100	1.63		
Y[Aib]EGTFISDYSIALDKIHQEDFVNWLLAQRG [Sequence 9 (Seq ID. 9)]		> 100	16.4		
Y[Aib]EGTFISDYSIALDEIHQKDFVKWLLAQKG [Sequence 4 (Seq ID. 4)]		> 100	2.87		
